Measurements: paper PMC5536072

Test system: p53 (full-length human) (Homo sapiens)
Test: AFM
Settings: AFM on mica, 'physiological buffer conditions', binding buffer and temperature not given in the material, DNA stock in 10 mM Tris-HCl pH 7.6, 1 mM EDTA

Substance | Kd (stated as approximately the same Kd as for 20,000 bp DNA, p53 18.9-56.6 nM) [µM] | Kd (logistic fit of site occupancy against p53 18.9-56.6 nM, DNA 1 ng/uL) [µM]
5000 bp DNA | 0.328 | –
20,000 bp DNA | – | 0.328
